One data set concerns CCCC(=O)SCC[N+](C)(C)C. Nature of the data set: purified protein, by the assay type. To be noted: pH 7.4; 25.0 °C.
Data set [1] addresses recombinant equine BChE (butyrylcholinesterase), truncated version devoid of the tetramerization domain, GA-BChE-His, Seq.2, expressed in Leishmania tarentolae (Equus caballus, UniProt Q9N1N9). The data set is described as follows: Ellman's method enzymatic activity test (hydrolysis of S-butyrylthiocholine iodide, DTNB, absorbance at 412 nm). In general terms: Ellman's reagent forms a yellow product with free thiols.

Broadly, the Km is the substrate concentration at which the rate is half of its maximum. In the case of “recombinant equine BChE (butyrylcholinesterase), truncated version devoid of the tetramerization domain, GA-BChE-His, Seq.2, expressed in Leishmania tarentolae T7-TR (Equus caballus)”, the Km in the data set on CCCC(=O)SCC[N+](C)(C)C is reported as 20 µM.

On to `CN(C)c1ccc2nc3ccc(=[N+](C)C)cc-3sc2c1` [methylene blue], for which the “BChE activity in the presence of different concentrations of methylene blue” value in data set [1] is recorded as “inhibited”.

The values above are taken from EP3473709B1, “DNA VECTOR CONTAINING A GENE ENCODING AN EQUINE BUTYRYLCHOLINESTERASE, FOR TRANSFORMATION AND INTEGRATION INTO LEISHMANIA TARENTOLAE CHROMOSOME” (priority 2017, dated 2019).
